Data from PMC9482650, “Quantitative fragmentomics allow affinity mapping of interactomes” (Nature Communications, 2022).

How the values were obtained:
Assay in all cases: holdup assay
Parameters in all cases: key: below the threshold = too weak to quantify, mostly under pKd 3.1 to 4
Conditions in all cases: plain residues with an end cap or a label only (N-terminal biotin on a linker: ado-ado)
[1] = target: MAGI2_6, Q86UL8
[2] = target: GRIP2_3, Q9C0E4
[3] = target: FRMPD3, Q5JV73
[4] = target: GRIP2_5, Q9C0E4
Chain of GRIP2_5, Q9C0E4 (Q9C0E4 544-642): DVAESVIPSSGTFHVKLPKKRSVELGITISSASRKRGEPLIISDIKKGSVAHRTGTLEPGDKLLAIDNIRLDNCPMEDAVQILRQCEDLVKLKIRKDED

[5] = target: T1, DFNB31_3, Q9P202
T1 sequence (Q9P202 811-907, limits assumed, looked up): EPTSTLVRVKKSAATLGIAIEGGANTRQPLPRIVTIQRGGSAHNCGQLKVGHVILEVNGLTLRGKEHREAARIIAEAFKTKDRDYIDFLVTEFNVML

[6] = target: Inadl_8, Q8NI35
Chain of Inadl_8, Q8NI35 (Q8NI35 1425-1530): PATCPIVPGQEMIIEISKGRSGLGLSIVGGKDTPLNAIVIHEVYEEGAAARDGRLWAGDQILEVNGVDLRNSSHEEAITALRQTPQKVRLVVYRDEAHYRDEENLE

[7] = target: GRIP2_4, Q9C0E4
Chain of GRIP2_4, Q9C0E4 (Q9C0E4 446-548): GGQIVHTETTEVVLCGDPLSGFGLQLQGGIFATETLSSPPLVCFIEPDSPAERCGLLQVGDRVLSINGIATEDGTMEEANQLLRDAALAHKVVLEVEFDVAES

[8] = target: T2, MPP6, Q9NZW5
T2 sequence (Q9NZW5 125-219, limits assumed, looked up): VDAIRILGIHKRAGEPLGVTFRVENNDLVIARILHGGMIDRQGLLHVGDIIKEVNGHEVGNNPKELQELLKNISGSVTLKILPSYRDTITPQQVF

[9] = target: LDB3, O75112
Chain of LDB3, O75112 (O75112 1-94): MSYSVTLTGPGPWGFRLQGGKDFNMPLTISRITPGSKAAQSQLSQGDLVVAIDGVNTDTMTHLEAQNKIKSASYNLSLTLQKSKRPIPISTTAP

[10] = target: MAGI3_2, Q5TCQ9
Chain of MAGI3_2, Q5TCQ9 (Q5TCQ9 398-503): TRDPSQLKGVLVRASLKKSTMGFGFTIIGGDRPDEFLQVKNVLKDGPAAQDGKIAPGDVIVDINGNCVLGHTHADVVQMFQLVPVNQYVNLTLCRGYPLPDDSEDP

[11] = target: T3, DFNB31_1, Q9P202
T3 sequence (Q9P202 135-233, limits assumed, looked up): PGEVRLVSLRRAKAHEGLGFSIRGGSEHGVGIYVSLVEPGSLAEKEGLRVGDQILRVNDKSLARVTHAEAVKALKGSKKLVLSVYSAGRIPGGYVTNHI

[12] = target: T4, APBA3_1, O96018
T4 sequence (O96018 389-490, limits assumed, looked up): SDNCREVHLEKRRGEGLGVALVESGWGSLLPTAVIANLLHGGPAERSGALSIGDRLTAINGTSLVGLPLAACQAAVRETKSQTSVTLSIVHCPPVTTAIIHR

[13] = target: T5, LNX2_2, Q8N448
T5 sequence (Q8N448 334-432, limits assumed, looked up): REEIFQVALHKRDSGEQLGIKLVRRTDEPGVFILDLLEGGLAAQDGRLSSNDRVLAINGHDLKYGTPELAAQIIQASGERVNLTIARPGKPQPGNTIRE

[14] = target: MAGI2_4, Q86UL8
Chain of MAGI2_4, Q86UL8 (Q86UL8 772-865): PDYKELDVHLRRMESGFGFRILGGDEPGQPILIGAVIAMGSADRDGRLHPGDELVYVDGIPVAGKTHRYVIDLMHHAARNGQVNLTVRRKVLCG

[15] = target: CASK, O14936
Chain of CASK, O14936 (O14936 487-570): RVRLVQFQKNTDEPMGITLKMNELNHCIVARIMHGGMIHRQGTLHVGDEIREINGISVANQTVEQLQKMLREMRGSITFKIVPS

[16] = target: SCRIB_3, Q14160
Chain of SCRIB_3, Q14160 (Q14160 999-1103): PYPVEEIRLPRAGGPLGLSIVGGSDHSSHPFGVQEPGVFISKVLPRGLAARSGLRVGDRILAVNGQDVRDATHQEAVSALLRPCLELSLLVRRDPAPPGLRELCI

[17] = target: Inadl_1, Q8NI35
Chain of Inadl_1, Q8NI35 (Q8NI35 113-229): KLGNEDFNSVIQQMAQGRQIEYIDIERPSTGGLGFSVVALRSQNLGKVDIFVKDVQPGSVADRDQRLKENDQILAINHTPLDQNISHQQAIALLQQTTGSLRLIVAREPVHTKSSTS

[18] = target: T6, PDZD7_3, Q9H5P4
T6 sequence (Q9H5P4 857-944, limits assumed, looked up): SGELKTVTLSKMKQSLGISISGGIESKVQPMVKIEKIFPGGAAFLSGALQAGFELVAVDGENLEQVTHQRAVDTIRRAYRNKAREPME

[19] = target: LIMK2, P53671
Chain of LIMK2, P53671 (P53671 143-248): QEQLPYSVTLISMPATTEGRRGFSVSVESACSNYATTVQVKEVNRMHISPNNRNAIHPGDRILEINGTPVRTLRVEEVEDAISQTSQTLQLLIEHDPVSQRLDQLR

[20] = target: T7, SHANK1, Q9Y566
T7 sequence (Q9Y566 658-767, limits assumed, looked up): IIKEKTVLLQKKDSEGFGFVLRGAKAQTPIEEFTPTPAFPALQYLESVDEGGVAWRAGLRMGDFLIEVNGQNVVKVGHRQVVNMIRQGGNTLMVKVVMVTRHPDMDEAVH

[21] = target: GRIP2_6, Q9C0E4
Chain of GRIP2_6, Q9C0E4 (Q9C0E4 648-740): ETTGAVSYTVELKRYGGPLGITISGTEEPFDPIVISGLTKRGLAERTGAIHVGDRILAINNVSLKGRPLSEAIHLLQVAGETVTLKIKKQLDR

[22] = target: DLG4_2, P78352
Chain of DLG4_2, P78352 (P78352 155-259): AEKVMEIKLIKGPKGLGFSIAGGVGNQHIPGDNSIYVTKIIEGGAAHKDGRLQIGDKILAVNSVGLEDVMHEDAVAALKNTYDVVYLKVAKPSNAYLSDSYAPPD

[23] = target: T8, DLG3_3, Q92796
T8 sequence (Q92796 374-475, limits assumed, looked up): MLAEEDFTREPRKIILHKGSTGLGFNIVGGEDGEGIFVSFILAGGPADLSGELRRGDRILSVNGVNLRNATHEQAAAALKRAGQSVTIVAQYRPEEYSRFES

[24] = target: T9, MPDZ_12, O75970
T9 sequence (O75970 1857-1958, limits assumed, looked up): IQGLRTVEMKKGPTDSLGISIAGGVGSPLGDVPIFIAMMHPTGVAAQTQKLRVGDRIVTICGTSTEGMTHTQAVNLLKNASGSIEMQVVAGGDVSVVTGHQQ

[25] = target: IL16_3, Q14005
Chain of IL16_3, Q14005 (Q14005 1107-1207): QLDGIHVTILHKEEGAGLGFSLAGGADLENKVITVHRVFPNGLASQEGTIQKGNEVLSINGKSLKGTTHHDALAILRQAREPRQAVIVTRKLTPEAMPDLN

[26] = target: PTPN3, P26045
Chain of PTPN3, P26045 (P26045 505-587): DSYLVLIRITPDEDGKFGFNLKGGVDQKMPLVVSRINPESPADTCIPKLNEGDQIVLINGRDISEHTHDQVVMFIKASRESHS

[27] = target: TJP1_3, Q07157
Chain of TJP1_3, Q07157 (Q07157 416-512): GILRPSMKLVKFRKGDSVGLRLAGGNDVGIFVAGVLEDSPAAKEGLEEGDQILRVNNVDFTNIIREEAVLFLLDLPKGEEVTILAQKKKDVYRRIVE

[28] = target: T10, MPP2, Q14168
T10 sequence (Q14168 180-250, limits assumed, looked up): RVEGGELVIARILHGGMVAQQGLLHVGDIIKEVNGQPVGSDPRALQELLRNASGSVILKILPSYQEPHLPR

[29] = target: DLG4_1, P78352
Chain of DLG4_1, P78352 (P78352 62-152): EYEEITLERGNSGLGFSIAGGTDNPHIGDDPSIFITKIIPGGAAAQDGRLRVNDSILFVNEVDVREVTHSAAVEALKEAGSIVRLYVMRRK

Chain of GRIP2_3, Q9C0E4 (Q9C0E4 238-339): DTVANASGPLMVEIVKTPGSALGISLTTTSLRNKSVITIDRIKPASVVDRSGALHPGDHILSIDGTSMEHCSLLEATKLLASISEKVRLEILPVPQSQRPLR
Chain of FRMPD3, Q5JV73 (Q5JV73 12-100): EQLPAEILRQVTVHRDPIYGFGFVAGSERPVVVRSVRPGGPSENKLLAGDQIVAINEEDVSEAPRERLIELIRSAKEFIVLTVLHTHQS
Chain of MAGI2_6, Q86UL8 (Q86UL8 1141-1229): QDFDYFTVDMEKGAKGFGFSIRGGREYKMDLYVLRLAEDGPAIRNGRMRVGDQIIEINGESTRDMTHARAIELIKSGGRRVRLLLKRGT

GTMFLRETSL [GUCY1A2, P33402]
pKd [1]: 4.51
pKd [2]: below the threshold
pKd [3]: below the threshold
pKd [4]: below the threshold
pKd [5]: 3.5
pKd [6]: 3.9
pKd [7]: below the threshold
pKd [8]: below the threshold
pKd [9]: below the threshold
pKd [10]: 4.46
pKd [11]: 4.85
pKd [12]: below the threshold
pKd [13]: below the threshold
pKd [14]: below the threshold
pKd [15]: below the threshold
pKd [16]: 5.37
pKd [17]: below the threshold
pKd [18]: 4.97
pKd [19]: below the threshold
pKd [20]: 4.33
pKd [21]: below the threshold
pKd [22]: 4.5
pKd [23]: 4.64
pKd [24]: below the threshold
pKd [25]: below the threshold
pKd [26]: 5.04
pKd [27]: below the threshold
pKd [28]: below the threshold
pKd [29]: 4.03

IKLETKKTKL [SLC15A2, Q16348]
pKd [1]: below the threshold
pKd [2]: below the threshold
pKd [3]: below the threshold
pKd [4]: 3.58
pKd [5]: 4.16
pKd [6]: 3.76
pKd [7]: below the threshold
pKd [8]: below the threshold
pKd [9]: below the threshold
pKd [10]: 3.49
pKd [11]: 3.79
pKd [12]: below the threshold
pKd [13]: below the threshold
pKd [14]: below the threshold
pKd [15]: below the threshold
pKd [16]: 3.77
pKd [17]: below the threshold
pKd [18]: 4.75
pKd [19]: below the threshold
pKd [20]: 4.85
pKd [21]: 3.48
pKd [22]: 3.87
pKd [23]: 3.81
pKd [24]: below the threshold
pKd [25]: below the threshold
pKd [26]: below the threshold
pKd [27]: 3.54
pKd [28]: below the threshold
pKd [29]: 3.69

PLATCDETSI [SEMA4F, O95754]
pKd [1]: 3.87
pKd [2]: below the threshold
pKd [3]: below the threshold
pKd [4]: below the threshold
pKd [5]: 3.7
pKd [6]: below the threshold
pKd [7]: below the threshold
pKd [8]: below the threshold
pKd [9]: below the threshold
pKd [10]: below the threshold
pKd [11]: 5.13
pKd [12]: below the threshold
pKd [13]: 3.52
pKd [14]: below the threshold
pKd [15]: below the threshold
pKd [16]: 4.81
pKd [17]: below the threshold
pKd [18]: 4.43
pKd [19]: below the threshold
pKd [20]: 3.87
pKd [21]: below the threshold
pKd [22]: 3.67
pKd [23]: below the threshold
pKd [24]: below the threshold
pKd [25]: below the threshold
pKd [26]: 4.72
pKd [27]: below the threshold
pKd [28]: below the threshold
pKd [29]: below the threshold

GQNMTVSVVI [PRLHR, P49683]
pKd [1]: below the threshold
pKd [2]: below the threshold
pKd [3]: below the threshold
pKd [4]: below the threshold
pKd [5]: 4.21
pKd [6]: 3.8
pKd [7]: below the threshold
pKd [8]: 3.71
pKd [9]: below the threshold
pKd [10]: below the threshold
pKd [11]: below the threshold
pKd [12]: below the threshold
pKd [13]: 5.11
pKd [14]: below the threshold
pKd [15]: below the threshold
pKd [16]: 3.66
pKd [17]: below the threshold
pKd [18]: 4.4
pKd [19]: below the threshold
pKd [20]: below the threshold
pKd [21]: 4.15
pKd [22]: below the threshold
pKd [23]: below the threshold
pKd [24]: below the threshold
pKd [25]: below the threshold
pKd [26]: 3.77
pKd [27]: below the threshold
pKd [28]: below the threshold
pKd [29]: below the threshold
